Ends that are not written are not given here. * marks the point of attachment. Biotin = O=C1N[C@H]2[C@H](CS[C@H]2CCCCC(=O)*)N1
Assays:
Conditions in all cases: both partners purified
[1] = molecular target: T1, HSC70 (HSPA8), His-tagged (UniProt P11142 1-646); assay: ELISA; competition: 1 μM chaperone mixed with soluble peptide (titrated up to 100 μM, or fixed 100 μM in the screens) and bound to immobilised 1097-L; Kd of the competing peptide from linearised competition curves
T1 construct: HSC70 (HSPA8), the constitutive form of HSP70

[2] = molecular target: T2, DNAJA1 (DJA1), His-tagged (UniProt P31689 1-397); assay: as above
T2 construct: DNAJA1, J-domain co-chaperone of HSC70

[3] = molecular target: T3, DNAJA2 (DJA2), His-tagged (UniProt O60884 1-412); assay: as above
T3 construct: DNAJA2, J-domain co-chaperone of HSC70

[4] = molecular target: T2, DNAJA1 (DJA1), His-tagged; assay: ELISA; titration of increasing concentrations of chaperone on immobilised biotinylated peptide; HSC70 with ATP; apparent Kd from linearised binding curves
[5] = molecular target: T1, HSC70 (HSPA8), His-tagged; assay: as above
[6] = molecular target: T3, DNAJA2 (DJA2), His-tagged; assay: as above

T1 sequence (P11142 whole entry): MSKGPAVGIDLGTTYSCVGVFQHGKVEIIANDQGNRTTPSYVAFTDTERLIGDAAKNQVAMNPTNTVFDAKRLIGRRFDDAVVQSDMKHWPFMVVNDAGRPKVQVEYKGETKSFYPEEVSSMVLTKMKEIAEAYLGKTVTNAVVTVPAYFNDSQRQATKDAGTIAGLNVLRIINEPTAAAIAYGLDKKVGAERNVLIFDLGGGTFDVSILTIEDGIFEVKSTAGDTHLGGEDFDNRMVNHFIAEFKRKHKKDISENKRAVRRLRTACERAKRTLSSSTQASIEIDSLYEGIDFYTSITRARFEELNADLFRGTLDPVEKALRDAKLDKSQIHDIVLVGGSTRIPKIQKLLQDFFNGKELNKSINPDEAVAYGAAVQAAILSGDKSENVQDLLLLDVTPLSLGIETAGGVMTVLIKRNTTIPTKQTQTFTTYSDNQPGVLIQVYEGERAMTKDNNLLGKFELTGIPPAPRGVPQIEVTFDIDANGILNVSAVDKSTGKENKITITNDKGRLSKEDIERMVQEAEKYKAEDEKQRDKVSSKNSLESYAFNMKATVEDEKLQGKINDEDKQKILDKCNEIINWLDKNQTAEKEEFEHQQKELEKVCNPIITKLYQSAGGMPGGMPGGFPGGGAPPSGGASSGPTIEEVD
T3 sequence (O60884 whole entry): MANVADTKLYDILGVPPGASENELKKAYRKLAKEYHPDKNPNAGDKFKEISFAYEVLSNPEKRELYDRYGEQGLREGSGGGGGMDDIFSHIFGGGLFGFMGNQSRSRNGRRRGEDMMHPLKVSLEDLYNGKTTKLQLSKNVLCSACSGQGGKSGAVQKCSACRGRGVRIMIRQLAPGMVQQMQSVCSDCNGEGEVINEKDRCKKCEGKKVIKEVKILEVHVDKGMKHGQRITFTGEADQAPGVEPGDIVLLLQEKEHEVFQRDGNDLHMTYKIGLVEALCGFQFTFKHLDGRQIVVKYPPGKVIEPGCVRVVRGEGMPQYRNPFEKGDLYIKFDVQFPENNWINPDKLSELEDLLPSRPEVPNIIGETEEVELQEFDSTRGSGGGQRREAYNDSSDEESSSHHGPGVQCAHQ

Binder	Kd [1] [nM]	Kd [3] [nM]	further results
FGVIPQKVFIFSGTF (peptide, UniProt P13569 1286-1300, looked up, source: synthetic peptide (Lifetein, unmodified, >85% purity)) [CFTR peptide 1293-L, soluble unmodified]	2020	–	–
SKLFFSWTR (peptide, UniProt P13569 13-21, looked up, CFTR, 9-mer numbered by its central residue 17, from the NT; source: synthetic peptide (Lifetein, unmodified, >85% purity)) [CFTR peptide 17-S]	1760	–	–
DCTVILCEH (peptide, UniProt P13569 1394-1402, looked up, source: synthetic peptide (Lifetein, unmodified, >85% purity)) [CFTR peptide 1398-S]	900	4450	Kd [2]: 18300 nM
DKILILHEG (peptide, UniProt P13569 614-622, looked up, source: synthetic peptide (Lifetein, unmodified, >85% purity)) [CFTR peptide 618-S]	3730	–	–
QKVFIFSGT (peptide, UniProt P13569 1291-1299, looked up, source: synthetic peptide (Lifetein, unmodified, >85% purity)) [CFTR peptide 1295-S]	1260	–	–
Biotin-GSGSTVILCEHRIEAMLEC (cysteine pairing not given here, linker; CFTR, 15-mer numbered by its middle residue 1403, from NBD2; source: synthetic peptide (Mimotopes, PepSet purity)) [CFTR peptide 1403-L, biotinylated (library form)]	–	–	Kd [4]: 1490 nM; Kd [5]: 11100 nM; Kd [6]: 1190 nM
TSLLMVIMG (peptide, UniProt P13569 465-473, looked up, source: synthetic peptide (Lifetein, unmodified, >85% purity)) [CFTR peptide 469-S]	1560	4820	–
Biotin-GSGSRTLKQAFADCTVILC (cysteine pairing not given here, linker; CFTR, 15-mer numbered by its middle residue 1393, from NBD2; source: synthetic peptide (Mimotopes, PepSet purity)) [CFTR peptide 1393-L, biotinylated (library form)]	–	–	Kd [4]: 1500 nM; Kd [5]: 9060 nM; Kd [6]: 1120 nM
TVILCEHRIEAMLEC (peptide, UniProt P13569 1396-1410, looked up, CFTR, 15-mer numbered by its middle residue 1403, from NBD2; source: synthetic peptide (Lifetein, unmodified, >85% purity)) [CFTR peptide 1403-L, soluble unmodified]	2660	994	Kd [2]: 9150 nM
LRWFQMRIE (peptide, UniProt P13569 1096-1104, looked up, CFTR, 9-mer numbered by its central residue 1100, L4 side of the NT-L4 interface; source: synthetic peptide (Lifetein, unmodified, >85% purity)) [CFTR peptide 1100-S]	–	8330	–
RTLKQAFADCTVILC (peptide, UniProt P13569 1386-1400, looked up, CFTR, 15-mer numbered by its middle residue 1393, from NBD2; source: synthetic peptide (Lifetein, unmodified, >85% purity)) [CFTR peptide 1393-L, soluble unmodified]	1040	1490	Kd [2]: 15700 nM
